This note sets out measurements from US20090285798A1 (COMMISSARIAT A L ENERGIE ATOMIQUE, published 2009).

Assay [1] concerns the target T1, gp120 SF2 (HIV-1, UniProt P03378 32-509).
T1 construct: domain: gp120
In words: fluorescence anisotropy, 0.5 nM CD4M47-F titrated with gp120. Background: Fluorescence polarisation rises when a labelled molecule tumbles more slowly, as on binding a larger partner.

Assay [2] addresses T2, gp120 IIIB (HIV-1).
T2 construct: domain: gp120
The description is as above.

The target of assay [3] is T3, gp120 Bal (HIV-1).
T3 construct: domain: gp120
The description is as above.

The target in assay [4] is T4, gp120SF162 (HIV-1, UniProt P19550 32-502).
T4 construct: domain: gp120
Described as above.

The target in another assay is T5, gp120YU2 (HIV-1, UniProt P35961 32-498).
T5 construct: domain: gp120
The assay is described as above.

Assay [5] concerns the target T3, gp120 Bal. The assay is described as follows: fluorescence anisotropy, ratio of the Kd values of Table I (lower end falls on Bal).
The target of assay [6] is T2, gp120 IIIB. In words: fluorescence anisotropy, Alexa-488-labelled mini-protein (0.5 nM) titrated with gp120 in solution.
Protocol: (§1) Binding assays by fluorescence anisotropy were made in a LJL Analyst (LJL BIOSYSTEMS) microplate reader using 384-wells plates.
(§2) Direct binding assays of fluorescent peptides were performed in triplicates by adding 10 μL of 0.5 nM Alexa-labeled mini-proteins and 10 μL of serial dilutions (two-thirds dilutions in 16 wells, starting at 200 nM) of gp120 SF2, SF162, BaL, IIIB and YU2. Collected data were fitted to the following equation using a non-linear regression program (Prism, GraphPad software Inc.):
Assay [7] deals with T3, gp120 Bal. The description is as above.
Protocol: as §1, §2
Assay [8] addresses T4, gp120SF162. In words: fluorescence anisotropy, ratio of the Kd values of Table I (upper end falls on SF162).
A further assay has as its target NL4.3 env (HIV-1 groupM). In words: cell-based or functional assay.
The target in assay [9] is BaL virus envelope (HIV-1 groupM). In words: cell-based or functional assay.
For assay [10], the target named is HIV-1 isolate 77 envelope (HIV-1). In words: cell-based or functional assay.
Another assay deals with MJ4 pseudovirus envelope (HIV-1). In words: cell-based or functional assay.
Assay [11] addresses BaL virus envelope (HIV-1 groupM). The assay is described as follows: cell-based or functional assay. This is another data set of the same source.
In a further assay the target is Mn pseudovirus envelope (HIV-1, UniProt P05877 32-856). The assay is described as follows: cell-based or functional assay.
Assay [12] deals with VI1358 pseudovirus envelope (HIV-1). The assay is described as follows: cell-based or functional assay.
In assay [13] the target is VI829 pseudovirus envelope (HIV-1). The assay is described as follows: cell-based or functional assay.
Assay [14] deals with CA10-3 pseudovirus envelope (HIV-1). The assay is described as follows: cell-based or functional assay.
For assay [15], the target named is SF162 pseudovirus envelope (HIV-1, UniProt P19550 32-847). The assay is described as follows: cell-based or functional assay.
The target of assay [16] is T4, gp120SF162. The assay is described as follows: fluorescence polarization competition: 6 nM gp120SF162, 1 nM fluorescein-CD4M33.
Description: as §1
The target of assay [17] is T4, gp120SF162. In words: competitive ELISA, IC50 values of Table III (largest ratio falls on gp120SF162). In general terms: ELISA stands for enzyme-linked immunosorbent assay.
Protocol: Competition binding assays in ELISA were performed in 96-wells plates (MAXISORB). Briefly, 50 ng per well of antibody D7324 (AALTO BIO REAGENTS) were coated overnight at 4° C.
Assay [18] addresses HIV-1 isolate 6393 envelope (HIV-1). In words: cell-based or functional assay.
Assay [19] has as its target HIV-1 isolate 714 envelope (HIV-1). In words: cell-based or functional assay.
In assay [20] the target is T1, gp120 SF2. The assay is described as follows: fluorescence anisotropy, ratio of the Kd values of Table I (lower end falls on SF2).

B1: Alexa labeled mini-protein CD4M47 (peptide)
peptide: XNLHFCQLRCKSLGLLGRCAXTXCACV
modifications: not fully specified; N-terminal thiopropionic acid (TPA) at position 1; (D)Pro at 21; biphenylalanine (Bip) at 23; C-terminal amide; Alexa-488 on Lys11
notes: also called CD4M47-F; CD4M47-F1
For B1, the EC50 (read off the curve) (as a rule, the concentration giving half of the maximal effect) in the assay with gp120 SF2 [1] is approximately 0.3 nM; with gp120 IIIB [2], approximately 0.9 nM; with gp120 Bal [3], approximately 1 nM; with gp120SF162 [4], approximately 0.3 nM; in the assay with gp120YU2, approximately 3 nM. The “fold improvement of affinity over CD4M33” value with gp120 Bal [5] and with gp120SF162 [8] was 5.2 to 12.3 fold in each case. For the same molecule, the values for the Kd with gp120 IIIB [6] and with gp120 Bal [7] were 0.589 nM and 1.22 nM, respectively.

B2: CD4M48-heparin (peptide)
peptide: XNLHFCQLRCKSLGLLGRCAXTFCACV
modifications: not fully specified; N-terminal thiopropionic acid (TPA) at position 1; (D)Pro at 21; C-terminal amide; Lys11 carries a hydrazino group ligated to heparin mono-aldehyde
Consider B2, for which, in the assay with NL4.3 env, the “IC50, HIV-1 infection of MT-4 cells (MTS viability, day 5)” value was determined as 112 nM and the “IC50, HIV-1 infection of PBMC (p24, day 12)” value (from here on “IC50, HIV-1 infection of PBMC”) is less than 80 nM. Besides, the “IC50, acute HIV-1 infection of PM1 cells (p24, day 5)” value (shortened to “IC50, acute HIV-1 infection”) with BaL virus envelope [9] was 850 nM. Also, the “IC50, acute HIV-1 infection” value in assay [10] is less than 4 nM.

B3: CD4M47 (peptide)
peptide: XNLHFCQLRCKSLGLLGRCAXTXCACV
modifications: not fully specified; N-terminal thiopropionic acid (TPA) at position 1; (D)Pro at 21; biphenylalanine (Bip) at 23; C-terminal amide
In the case of B3, the “EC50, single-cycle HIV-1 pseudovirus infection of GHOST cells (luciferase)” value (shortened to “EC50 … (luciferase)”) in the assay with MJ4 pseudovirus envelope is more than 3410 nM; in the assay with BaL virus envelope [11] it was 108 nM; with Mn pseudovirus envelope, 1 nM; in assay [12], 579 nM; in [13], 1200 nM; in [14] it was 91 nM. Also, the “EC50 … (luciferase)” value in assay [15] came to 22 nM.

With XNLHFCQLRCKSLGLLGKCAGSXCACV (not fully specified; biphenylalanine (Bip) at 23; Alexa-488 on Lys11) [Alexa labeled mini-protein CD4M33], the dissociation constant (Kd) (as a rule, the free concentration of one partner at which half of the binding sites on the other are occupied at equilibrium, for simple one-to-one binding) in the assay with gp120 IIIB [6] came to 3.81 nM; with gp120 Bal [7], 6.36 nM.

B4: CD4M48T50 (peptide)
peptide: XNLHFCQLRCKSLGLLGRCAXTFCACV
modifications: not fully specified; N-terminal thiopropionic acid (TPA) at position 1; (D)Pro at 21; C-terminal amide; Lys11 carries a mercapto group ligated to a maleimido group of a polylysine construct with 50 Å PEGylated linkers
notes: tetramer of CD4M48-SH on a polylysine construct
Regarding B4, in the assay with gp120SF162 [16], the “IC50 (read off the curve)” value is approximately 1 nM.

B5: CD4M48_U3 (peptide)
peptide: XNLHFCQLRCKSLGLLGRCAXTXCACV
modifications: not fully specified; N-terminal thiopropionic acid (TPA) at position 1; (D)Pro at 21; Phe(para-[phenyl-ethoxy]) (U3) at 23; C-terminal amide
For the molecule B5, the “EC50 … (luciferase)” value with MJ4 pseudovirus envelope is more than 3270 nM; with BaL virus envelope [11] it was 67 nM; with Mn pseudovirus envelope it was 0.13 nM; in assay [12], 364 nM; in assay [13] it was 950 nM; in [14] it was 29 nM. Further, in [15], the “EC50 … (luciferase)” value was found to be 2 nM.

B6: CD4M48D50 (peptide)
peptide: XNLHFCQLRCKSLGLLGRCAXTFCACV
modifications: not fully specified; N-terminal thiopropionic acid (TPA) at position 1; (D)Pro at 21; C-terminal amide; Lys11 carries a mercapto group ligated to a maleimido group of a polylysine construct with 50 Å PEGylated linkers
notes: dimer of CD4M48-SH on a polylysine construct
Consider B6, for which the “IC50 (read off the curve)” value with gp120SF162 [16] was approximately 1 nM.

B7: CD4M48_U2 (peptide)
peptide: XNLHFCQLRCKSLGLLGRCAXTXCACV
modifications: not fully specified; N-terminal thiopropionic acid (TPA) at position 1; (D)Pro at 21; para-cyclo-pentylethoxyphenylalanine (U2) at 23; C-terminal amide
As to B7, the “EC50 … (luciferase)” value in the assay with MJ4 pseudovirus envelope is 773 nM; in the assay with BaL virus envelope [11] it was 4 nM; with Mn pseudovirus envelope, 0.08 nM; in [12], 42 nM; in assay [13], 98 nM; in assay [14] it was 3.6 nM. Further, in assay [15], the “EC50 … (luciferase)” value came to 1.6 nM. Also, the “fold enhanced affinity compared to CD4M47” value with gp120SF162 [17] was not above 3 fold.

B8: CD4M48 (peptide)
peptide: XNLHFCQLRCKSLGLLGRCAXTFCACV
modifications: not fully specified; N-terminal thiopropionic acid (TPA) at position 1; (D)Pro at 21; C-terminal amide
notes: optimized mini-protein, Phe at 23; unlabelled monomer; also called B4T
B8: the “IC50 (read off the curve)” value with gp120SF162 [16] is approximately 3 nM. For the same molecule, the “IC50, HIV-1 infection of MT-4 cells (MTS viability, day 5)” value with NL4.3 env worked out at 2.6 nM. Moreover, the “IC50, HIV-1 infection of PBMC” value with NL4.3 env came out at 0.44 nM. For the same molecule, the “IC50, acute HIV-1 infection” value in [18] stood at 95 nM; with BaL virus envelope [9], 185 nM; in [10], 250 nM; in assay [19] it was 670 nM. Besides, the “EC50 … (luciferase)” value with MJ4 pseudovirus envelope is more than 3300 nM; in the assay with BaL virus envelope [11] it was 77 nM; with Mn pseudovirus envelope, 4 nM; in [12] it was 57 nM; in assay [13], 755 nM; in assay [14], 63 nM. In addition, the “EC50 … (luciferase)” value in assay [15] worked out at 5 nM.

B9: CD4M48T100 (peptide)
peptide: XNLHFCQLRCKSLGLLGRCAXTFCACV
modifications: not fully specified; N-terminal thiopropionic acid (TPA) at position 1; (D)Pro at 21; C-terminal amide; Lys11 carries a mercapto group ligated to a maleimido group of a polylysine construct with 100 Å PEGylated linkers
notes: as for B4
Consider B9, for which the “IC50 (read off the curve)” value with gp120SF162 [16] was approximately 2 nM. The “IC50, HIV-1 infection of PBMC” value in the assay with NL4.3 env was found to be 1.3 nM. Besides, the “IC50, acute HIV-1 infection” value in assay [10] is less than 4 nM.

B10: CD4M48D100 (peptide)
peptide: XNLHFCQLRCKSLGLLGRCAXTFCACV
modifications: not fully specified; N-terminal thiopropionic acid (TPA) at position 1; (D)Pro at 21; C-terminal amide; Lys11 carries a mercapto group ligated to a maleimido group of a polylysine construct with 100 Å PEGylated linkers
notes: as for B6
On to B10, for which the “IC50 (read off the curve)” value in the assay with gp120SF162 [16] was approximately 2 nM. For the same molecule, in the assay with NL4.3 env, the “IC50, HIV-1 infection of PBMC” value was less than 1.8 nM. Moreover, in assay [10], the “IC50, acute HIV-1 infection” value turned out to be 3 nM.

B11: Alexa labeled mini-protein CD4M48 (peptide)
peptide: XNLHFCQLRCKSLGLLGRCAXTFCACV
modifications: not fully specified; N-terminal thiopropionic acid (TPA) at position 1; (D)Pro at 21; C-terminal amide; Alexa-488 on Lys11
notes: also called CD4M48-F1; Alexa 488-labeled CD4M48
Turning to B11, the “factor by which the Kd is smaller than that of CD4M33” value was found to be 1.1 fold with gp120 SF2 [20] and 6.1 fold in the assay with gp120SF162 [8]. For the same molecule, the Kd with gp120 IIIB [6] is 0.982 nM; with gp120 Bal [7], 5.46 nM.

B12: CD4M48_U1 (peptide)
peptide: XNLHFCQLRCKSLGLLGRCAXTXCACV
modifications: not fully specified; N-terminal thiopropionic acid (TPA) at position 1; (D)Pro at 21; para-cyclo-hexylmethoxyphenylalanine (U1) at 23; C-terminal amide
As for B12, the “EC50 … (luciferase)” value was 87 nM with MJ4 pseudovirus envelope; 2 nM with BaL virus envelope [11]; 0.07 nM with Mn pseudovirus envelope; 5 nM in [12]; 11 nM in assay [13]; 0.3 nM in [14]. For the same molecule, the “EC50 … (luciferase)” value in assay [15] is 0.65 nM.
